Assay results reported in US20030061635A1, “Pollen-specific novel calmodulin-binding protein, NPG1 (No Pollen Germination1), promoter, coding sequences and methods for using the same” (priority 2001, published 2003).

B1: NPG1: maize pollen-specific calmodulin-binding protein, 659 amino acid residues, about 72 kDa, SEQ ID NO:1 (protein)
chain: MPLIRYYVDHVHVAVEARALLGRLEFQKGNVEVALRVFDGIDLQAAIQQFQPSLSDKTPSKKGRTKSEIPSSVPQNNPASLVLEAIYLKSLSLQKLGKSTEAANQCKSVLDSVESIFQNGAPDIEQKLQETVNKSVELLPEAWKHAGSNQEALASYRRALLSPWNLDDECRTRVQKRFASFLLYXTNIDWSPPSMAQQVEGCFVPKNSVEEAVLLLMVVLRSWYQGKTHWDPSVMEHLTYALSLCGEPLVLAKQLEEVLPGVYPRTERWATLALCYYVAGQKDVALNFLRKSLNKLENPNDVLALLLAAKICSKERHLASEGVEYARRVIACAESSDPHLKSVGLHFLGSCLGNKSKVVSSDYQRSLLQTETLKSFAESIGLNRYNADLIFDMGVEYAEQRNMNAALRCAKEFIEATGGSVSKGWRLLALILSAQQRFSEAEVATDAALDETAKLDQGSLLRVKAKLKVAQSSPMEAVEAYRALLALVQAQKNSPGGSCKSATEDADGSVSEFEIWQGLANLYSSLSYWRDAEICLNKARALKLYSAATLHAEGYMHEARDQTTDALAAYVNAFSTELEHVPSKVAIGAMLSKQGPRFLPAARCFLSDALRVEPTNRMAWLYLGKVHRSDGRISDAADCFQAAVMLEESDPVESFSSLS
modifications: X: residue not identified in the source
B2: AtNPG1: Arabidopsis NPG1, protein of 704 amino acids, SEQ ID NO:10, bacterially expressed as T7 tag fusion (protein, listed as Arabidopsis thaliana)
chain: MLGNQSADFSEKGEDEIVRQLCANGICMKTTEVEAKLDEGNIQEAESSLREGLSLNFEEARALLGRLEYQRGNLEGALRVFEGIDLQAAIQRLQVSVPLEKPATKKNRPREPQQSVSQHAANLVLEAIYLKAKSLQKLGRITEAAHECKSVLDSVEKIFQQGIPDAQVDNKLQETVSHAVELLPALWKESGDYQEAISAYRRALLSQWNLDNDCCARIQKDFAVFLLHSGVEASPPSLGSQIEGSYIPRNNIEEAILLLMILLKKFNLGKAKWDPSVFEHLTFALSLCSQTAVLAKQLEEVMPGVFSRIERWNTLALSYSAAGQNSAAVNLLRKSLHKHEQPDDLVALLLAAKLCSEEPSLAAEGTGYAQRAINNAQGMDEHLKGVGLRMLGLCLGKQAKVPTSDFERSRLQSESLKALDGAIAFEHNNPDLIFELGVQYAEQRNLKAASRYAKEFIDATGGSVLKGWRFLALVLSAQQRFSEAEVVTDAALDETAKWDQGPLLRLKAKLKISQSNPTEAVETYRYLLALVQAQRKSFGPLRTLSQMEEDKVNEFEVWHGLAYLYSSLSHWNDVEVCLKKAGELKQYSASMLHTEGRMWEGRKEFKPALAAFLDGLLLDGSSVPCKVAVGALLSERGKDHQPTLPVARSLLSDALRIDPTNRKAWYYLGMVHKSDGRIADATDCFQAASMLEESDPIESFSTIL
modifications: T7 tag fusion

Columns and labels:
[1] = tested on: 35S-labeled AtCaM; test: Blot overlay of bacterially expressed maize NPG1 fusion proteins with 35S-CaM; type: binding, Arabidopsis thaliana; conditions: in the presence of EGTA
Procedure: The 1.2-kb cDNA insert (named P3) containing the coding region for 242 amino acids in the carboxyl-terminal region was cloned in-frame into a pET28b expression vector. For mapping the CaM-binding domain, several truncated constructs were prepared in a pET vector. The P3 cDNA in pET28 was digested with either NcoI or BamHI to release a 168- or 717-bp fragment corresponding to the 5′ end of the cDNA. The NcoI and BamHI fragments were cloned into pET28b vector digested with the respective enzymes to generate P3/NcoI and P3/BamHI clones. The P3 clones lacking either NcoI or BamHI fragments were religated to generate PΔNcoI and PΔBamHI expression clones. […]
Soluble and insoluble proteins from the induced and un-induced cultures were separated on 12% SDS-polyacrylamide gels and blotted as described above. […] Binding to biotinylated CaM was detected by blocking the blots in 3% gelatin in TBS/Ca/Mg or TBS/EGTA/Mg (50 mM Tris-HCl, pH 7.5, 50 mM MgCl2, 150 mM NaCl, and 5 mM of either CaCl2 or EGTA) at 30° C. […] The blots were then incubated in Vectastain ABC.HRP in TBS/Ca/Mg or TBS/EGTA/Mg for 30 min, washed 3 times, 10 min each, with the above buffer and the CaM-binding proteins were detected colorimetrically in a substrate solution (0.8 mg/ml diaminobenzidine, 0.4 mg/ml NiCl2, and 0.009% H2O2 in 100 mM Tris-HCl, pH 7.5).

[2] = target: T1, biotinylated CaM (Bos taurus, UniProt P62157); test: Blot overlay of fusion proteins with biotinylated CaM; type: binding; conditions: in the presence of Ca2+
T1 construct: purchased Calbiochem-Novabiochem (San Diego, Calif.)
Procedure: Soluble and insoluble proteins from the induced and un-induced cultures were separated on 12% SDS-polyacrylamide gels and blotted as described above. To detect the binding of the expressed proteins to ^35S-labeled AtCaM, duplicate blots were blocked for 15 min in TBS (50 mM Tris-HCl, pH 7.5, 150 mM NaCl) containing 5 mM of either CaCl2 or EGTA and 1% nonfat dry milk. The blots were then incubated for 12 h in a mixture of ^35S-labeled AtCaM isoforms at […] in the same buffers as above. The filters were then washed with the corresponding buffer and dried before exposing to X-ray film. Binding to biotinylated CaM was detected by blocking the blots in 3% gelatin in TBS/Ca/Mg or TBS/EGTA/Mg (50 mM Tris-HCl, pH 7.5, 50 mM MgCl2, 150 mM NaCl, and 5 mM of either CaCl2 or EGTA) at 30° C. The blots were then incubated in […] biotinylated CaM for 2 h in TBS/Ca/Mg or TBS/EGTA/Mg containing 0.1% Tween 20 and 1% gelatin followed by three washes of 10 min each in the corresponding buffers above. The blots were then incubated in Vectastain ABC.HRP in TBS/Ca/Mg or TBS/EGTA/Mg for 30 min, washed 3 times, 10 min each, with the above buffer and the CaM-binding proteins were detected colorimetrically in a substrate solution (0.8 mg/ml diaminobenzidine, 0.4 mg/ml NiCl2, and 0.009% H2O2 in 100 mM Tris-HCl, pH 7.5).

[3] = target: T2, CaM-Sepharose (Bos taurus, UniProt P62157); test: Native NPG1 from maize pollen on CaM-Sepharose column / pull-down with CaM-Sepharose beads; type: binding, bovine; conditions: bound with Ca2+, eluted with EGTA; maize pollen extract
T2 construct: purchased Amersham Pharmacia Biotech UK Ltd., Little Chalfont, Buckinghamshire, UK
Procedure: Maize pollen proteins were extracted in a buffer containing 50 mM Tris-HCl, pH 7.4, 250 mM sucrose, 5 mM DTT, and complete protease inhibitor mixture. The extract was first centrifuged at 14,000×g for 20 min and then at 100,000×g for 15 min at 4° C. to obtain the supernatant containing soluble proteins. Prior to loading the supernatant onto the CaM-Sepharose column (Amersham Pharmacia Biotech UK Ltd., Little Chalfont, Buckinghamshire, UK) the concentration of Ca^2+ was adjusted to 1.25 mM. The flow-through was collected and saved. The column was washed thoroughly with binding buffer (50 mM Tris-HCl, pH 7.5, 150 mM NaCl, 1.25 mM CaCl2) to remove unbound proteins. Washes equivalent to 1-bed volume of the column were collected and saved. The CaM-binding proteins were eluted with elution buffer (50 mM Tris-HCl, pH 7.5, 150 mM NaCl, 5 mM EGTA). The absorbance of the eluted fractions was recorded at 235 and 280 nm to compare the elution profile of protein with EGTA. Initial soluble extract, flow-through, wash fraction, and eluted protein were separated on three denaturing gels. One gel was stained with Coomassie Blue and the other two were blotted onto nitrocellulose membranes and probed with NPG1-specific antibody or HRP-CaM.
[…] of pollen soluble proteins prepared as described above were mixed and incubated with 0.2 ml of CaM-Sepharose beads at room temperature for 30 min. […]

[4] = target: T3, HRP-CaM (Arabidopsis CaM2) (Arabidopsis thaliana, UniProt P0DH97); test: HRP-CaM blot overlay assay; type: binding
T3 construct: made in house; host or cells: E. coli BL21(DE3)
Procedure: (§1) HRP was conjugated to CaM and used in blot overlay assays according to the procedure described by Lee et al. (1999) BBA 1433:56-67. Briefly, the Arabidopsis CaM2 was incubated in 25 mM Tris-HCl, pH 7, 2 mM EGTA, and 0.1 M DTT at 55° C. for 1.5 h and the reduced CaM was extensively dialyzed against phosphate-buffered saline at 4° C. Maleimide-activated HRP (Pierce Biotechnology, Inc., Rockford, Ill.) and reduced CaM were incubated at a molar ratio of 1:1 in phosphate-buffered saline at room temperature for 1.5 h. The resulting HRP-CaM complex was verified on a denaturing gel and used in blot-overlay assays. Protein blots were prepared as described above, rinsed in TBST (TBS containing 0.1% (v/v) Tween 20), and blocked by incubating in TBST plus 7% (w/v) non-fat dry milk overnight. The blocked membranes were washed three times, 5 min each, with TBST. […] The proteins that bound to HRP-CaM were detected by immersing the blots in a substrate solution as above.
Maize pollen proteins were extracted in a buffer containing 50 mM Tris-HCl, pH 7.4, 250 mM sucrose, 5 mM DTT, and complete protease inhibitor mixture. […] The absorbance of the eluted fractions was recorded at 235 and 280 nm to compare the elution profile of protein with EGTA. […]

[5] = tested on: CaM-Sepharose beads; test: Bacterially expressed AtNPG1 binding to CaM-Sepharose beads; conditions: eluted with EGTA-containing buffer
Procedure: A 2.0 kb EcoRI fragment of AtNPG1 cDNA containing the entire coding region was subcloned into pET28a and the orientation of the cDNA was confirmed by restriction analysis and sequencing. Induction of fusion protein, its purification on CaM Sepharose column and detection with horseradish peroxidase CaM isoforms was performed essentially as described earlier (Reddy and Reddy (2000) J. Biol. Chem. 275:35457-35470).

[6] = tested on: Arabidopsis CaM isoform-2, -4 and -6; test: Blot overlay of purified AtNPG1 with horseradish peroxidase labeled Arabidopsis CaM isoforms; type: binding, Arabidopsis thaliana; conditions: absence or presence of calcium
Procedure: as §1, with “TBST. After equilibration in the overlay buffer (50 mM imidazole-HCl, pH 7.5, and 150 mM NaCl) for 1 h, the membranes were incubated for 1 h in overlay buffer containing 0.1% gelatin and […] HRP-CaM. The HRP-CaM overlay blots were washed sequentially in three buffers. Wash with each buffer was performed five times for 5 min each.” for “TBST.”, “above. […]” for “above.”

Row | Molecule | binding to CaM [1] | binding to biotinylated CaM [2] | binding of native protein to CaM-Sepharose [3] | detection by HRP-CaM in blot overlay [4] | binding to CaM-Sepharose beads [5] | binding to Arabidopsis CaM isoforms in blot overlay [6]
1 | B1 | No binding to CaM was observed | did not bind to biotinylated CaM | binds CaM in the presence of Ca^2+ | also detected by HRP-CaM |  | 
2 | B2 |  |  |  |  | bound CaM-Sepharose beads in a calcium-dependent manner | bound three Arabidopsis CaM isoforms in a calcium-dependent manner
